Data reported in PMC2809091.

Key:
[1] = molecular target: F137L/E363G variant of S. pyogenes enolase (S. pyogenes) (UniProt P69949); assay: AUC; sedimentation velocity; 19.4 µM enolase after incubation in 0.2 M NaClO4; octamer to monomers
[2] = molecular target: F137L/E363G variant of S. pyogenes enolase (S. pyogenes) (UniProt P69949); assay: AUC; sedimentation velocity, 20°C; pH 9.0, 50 mM Tris or glycine with 1 mM Mg(OAc)2 and 0.1 mM EDTA; octamer to monomers
[3] = molecular target: F137L/E363G variant of S. pyogenes enolase (S. pyogenes) (UniProt P69949); assay: AUC; sedimentation velocity, 20°C; pH 7.4, 50 mM Tris with 1 mM Mg(OAc)2 and 0.1 mM EDTA
[4] = molecular target: F137L/E363G variant of S. pyogenes enolase (S. pyogenes) (UniProt P69949); assay: AUC; sedimentation velocity; 19.4 µM enolase incubated in 0.2 M NaClO4, then dialysed 24 hours against buffer (reassociation)
[5] = molecular target: F137L/E363G variant of S. pyogenes enolase (S. pyogenes) (UniProt P69949); assay: AUC; sedimentation velocity; 22.7 µM enolase in TME with varying NaClO4; octamer to monomers
[6] = molecular target: F137L/E363G variant of S. pyogenes enolase (S. pyogenes) (UniProt P69949); assay: AUC; sedimentation velocity, 15°C; 2.7 µM enolase incubated 18 h at 15°C in TME with NaClO4 (up to 0.4 M); octamer to monomers

In the case of “F137L/E363G variant of S. pyogenes enolase (from UniProt P69949 1-435) (enzyme)”, the percent octameric in 0.2 M NaClO4 [1] was 21%, the percent monomeric [2] was 54% and the percent octameric [2] was 39%. It also gave a percent octameric [3] of 88%, a stoichiometry N [3] of 8 and a percent octameric after dialysis against buffer [4] of 77%. For the same substance, the NaClO4 concentration at 50% dissociation [5] was 0.12 M and the NaClO4 concentration at 50% dissociation [6] was 0.06 M.
